T1: Hof1, Q05080
T1 sequence (Q05080 590-669, looked up): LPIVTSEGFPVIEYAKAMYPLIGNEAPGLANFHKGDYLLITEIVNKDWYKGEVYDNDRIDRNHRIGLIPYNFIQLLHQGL

T2: Boi1, P38041
T2 sequence (P38041 1-86, looked up): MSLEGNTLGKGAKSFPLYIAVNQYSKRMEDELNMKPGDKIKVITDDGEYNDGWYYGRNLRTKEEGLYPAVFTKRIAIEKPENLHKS

T3: Hse1, P38753
T3 sequence (P38753 208-285, looked up): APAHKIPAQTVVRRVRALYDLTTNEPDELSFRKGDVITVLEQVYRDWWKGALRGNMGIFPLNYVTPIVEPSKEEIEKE

T4: Nbp2, Q12163
T4 sequence (Q12163 103-180, looked up): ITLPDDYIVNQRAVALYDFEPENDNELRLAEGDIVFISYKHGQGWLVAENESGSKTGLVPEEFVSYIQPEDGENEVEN

T5: Pex13, P80667
T5 sequence (P80667 295-386, looked up): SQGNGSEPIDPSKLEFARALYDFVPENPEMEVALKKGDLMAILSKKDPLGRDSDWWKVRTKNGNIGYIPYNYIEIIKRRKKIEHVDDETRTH

T6: Cdc25, P04821
T6 sequence (P04821 50-136, looked up): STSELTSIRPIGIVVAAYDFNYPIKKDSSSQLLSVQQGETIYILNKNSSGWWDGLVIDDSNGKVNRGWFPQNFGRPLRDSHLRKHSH

T7: Boi2, P39969
T7 sequence (P39969 32-116, looked up): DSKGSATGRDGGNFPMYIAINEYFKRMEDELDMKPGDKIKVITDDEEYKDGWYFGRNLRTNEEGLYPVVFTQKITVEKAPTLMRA

T8: Cyk3, Q07533
T8 sequence (Q07533 1-83, looked up): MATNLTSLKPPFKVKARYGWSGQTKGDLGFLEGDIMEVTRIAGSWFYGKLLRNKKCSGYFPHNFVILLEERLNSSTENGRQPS

T9: Sla1-3, P32790
T9 sequence (P32790 344-424, looked up): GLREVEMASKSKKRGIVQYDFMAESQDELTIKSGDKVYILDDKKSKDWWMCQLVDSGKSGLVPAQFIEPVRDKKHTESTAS

T10: Abp1, P15891
T10 sequence (P15891 535-592, looked up): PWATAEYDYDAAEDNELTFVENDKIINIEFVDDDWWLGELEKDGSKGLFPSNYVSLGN

T11: Bzz1-1, P38822
T11 sequence (P38822 478-572, looked up): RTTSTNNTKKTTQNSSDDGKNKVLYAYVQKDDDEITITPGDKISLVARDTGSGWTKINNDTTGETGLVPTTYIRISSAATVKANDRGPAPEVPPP

T12: Lsb1, P53281
T12 sequence (P53281 45-122, looked up): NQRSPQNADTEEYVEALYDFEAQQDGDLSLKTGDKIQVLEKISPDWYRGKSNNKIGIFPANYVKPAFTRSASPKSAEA

T13: Bud14, P27637
T13 sequence (P27637 247-328, looked up): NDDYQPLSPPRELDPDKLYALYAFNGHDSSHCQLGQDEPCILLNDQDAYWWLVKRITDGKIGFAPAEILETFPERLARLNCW

T14: Fus1, P11710
T14 sequence (P11710 432-512, looked up): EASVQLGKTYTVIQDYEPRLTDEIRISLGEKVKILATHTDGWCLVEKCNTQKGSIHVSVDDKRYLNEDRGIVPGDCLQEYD

T15: Sla1-2, P32790
T15 sequence (P32790 60-140, looked up): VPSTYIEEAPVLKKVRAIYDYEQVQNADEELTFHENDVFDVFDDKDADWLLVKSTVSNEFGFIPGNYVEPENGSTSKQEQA

T16: Lsb4, P32793
T16 sequence (P32793 402-468, looked up): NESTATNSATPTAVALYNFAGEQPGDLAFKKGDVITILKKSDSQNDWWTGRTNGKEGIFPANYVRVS

T17: Bbc1, P47068
T17 sequence (P47068 1-78, looked up): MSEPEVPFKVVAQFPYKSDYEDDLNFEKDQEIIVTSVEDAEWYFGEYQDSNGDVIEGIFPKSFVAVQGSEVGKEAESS

T18: Lsb3, P43603
T18 sequence (P43603 385-451, looked up): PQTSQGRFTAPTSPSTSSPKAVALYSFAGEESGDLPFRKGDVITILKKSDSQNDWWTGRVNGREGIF

T19: Myo5, Q04439
T19 sequence (Q04439 1072-1160, looked up): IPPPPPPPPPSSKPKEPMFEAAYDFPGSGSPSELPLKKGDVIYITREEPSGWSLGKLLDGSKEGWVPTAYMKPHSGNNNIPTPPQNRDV

T20: Bzz1-2, P38822
T20 sequence (P38822 568-633, looked up): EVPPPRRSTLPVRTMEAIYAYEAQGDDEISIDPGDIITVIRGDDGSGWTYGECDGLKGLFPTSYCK

T21: Pin3, Q06449
T21 sequence (Q06449 53-122, looked up): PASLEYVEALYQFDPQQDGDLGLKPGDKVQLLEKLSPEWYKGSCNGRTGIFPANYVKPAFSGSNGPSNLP


Legend:
Test in all cases: SPOT array
Hof1, Q05080 = molecular target: T1, Hof1, Q05080; conditions: median of control spots 4086
Boi1, P38041 = molecular target: T2, Boi1, P38041; conditions: median of control spots 1162
Hse1, P38753 = molecular target: T3, Hse1, P38753; conditions: median of control spots 1727
Nbp2, Q12163 = molecular target: T4, Nbp2, Q12163; conditions: median of control spots 357
Pex13, P80667 = molecular target: T5, Pex13, P80667; conditions: median of control spots 1341
Sho1, P40073 = conditions: median of control spots 1148
Cdc25, P04821 = molecular target: T6, Cdc25, P04821; conditions: median of control spots 969
Boi2, P39969 = molecular target: T7, Boi2, P39969; conditions: median of control spots 1161
Cyk3, Q07533 = molecular target: T8, Cyk3, Q07533; conditions: median of control spots 1451
Sla1-3, P32790 = molecular target: T9, Sla1-3, P32790; conditions: median of control spots 5475
Abp1, P15891 = molecular target: T10, Abp1, P15891; conditions: median of control spots 935
Bzz1-1, P38822 = molecular target: T11, Bzz1-1, P38822; conditions: median of control spots 4446
Myo3, P36006 = conditions: median of control spots 468
Lsb1, P53281 = molecular target: T12, Lsb1, P53281; conditions: median of control spots 388
Bud14, P27637 = molecular target: T13, Bud14, P27637; conditions: median of control spots 956
Bem1-2, P29366 = conditions: median of control spots 4347
Fus1, P11710 = molecular target: T14, Fus1, P11710; conditions: median of control spots 1200
Sla1-2, P32790 = molecular target: T15, Sla1-2, P32790; conditions: median of control spots 712
GST = conditions: median of control spots 978
Lsb4, P32793 = molecular target: T16, Lsb4, P32793; conditions: median of control spots 397
Bbc1, P47068 = molecular target: T17, Bbc1, P47068; conditions: median of control spots 796
Lsb3, P43603 = molecular target: T18, Lsb3, P43603; conditions: median of control spots 406
Rvs167, P39743 = conditions: median of control spots 2707
Myo5, Q04439 = molecular target: T19, Myo5, Q04439; conditions: median of control spots 471
Bzz1-2, P38822 = molecular target: T20, Bzz1-2, P38822; conditions: median of control spots 4538
Pin3, Q06449 = molecular target: T21, Pin3, Q06449; conditions: median of control spots 2171
Bem1-1, P29366 = conditions: median of control spots 4282
Sequence of Bem1-1, P29366 (P29366 55-141): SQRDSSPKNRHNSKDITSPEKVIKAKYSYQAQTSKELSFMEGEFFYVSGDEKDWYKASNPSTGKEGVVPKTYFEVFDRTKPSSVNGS

Sequence of Rvs167, P39743 (P39743 419-482): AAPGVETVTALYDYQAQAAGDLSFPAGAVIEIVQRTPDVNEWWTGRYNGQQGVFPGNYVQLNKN
Sequence of Bem1-2, P29366 (P29366 139-227): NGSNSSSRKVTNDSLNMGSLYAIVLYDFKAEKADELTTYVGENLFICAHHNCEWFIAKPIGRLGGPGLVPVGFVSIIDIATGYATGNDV
Sequence of Sho1, P40073 (P40073 287-367): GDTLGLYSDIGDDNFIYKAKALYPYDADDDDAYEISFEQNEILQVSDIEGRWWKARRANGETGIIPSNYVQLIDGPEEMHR

| Binder | SPOT intensity (Hof1, Q05080) | SPOT intensity (Boi1, P38041) | SPOT intensity (Hse1, P38753) | SPOT intensity (Nbp2, Q12163) | SPOT intensity (Pex13, P80667) | SPOT intensity (Sho1, P40073) | SPOT intensity (Cdc25, P04821) | SPOT intensity (Boi2, P39969) | SPOT intensity (Cyk3, Q07533) | SPOT intensity (Sla1-3, P32790) | SPOT intensity (Abp1, P15891) | SPOT intensity (Bzz1-1, P38822) | SPOT intensity (Myo3, P36006) | SPOT intensity (Lsb1, P53281) | SPOT intensity (Bud14, P27637) | SPOT intensity (Bem1-2, P29366) | SPOT intensity (Fus1, P11710) | SPOT intensity (Sla1-2, P32790) | SPOT intensity (GST) | SPOT intensity (Lsb4, P32793) | further results |
| --- | --- | --- | --- | --- | --- | --- | --- | --- | --- | --- | --- | --- | --- | --- | --- | --- | --- | --- | --- | --- | --- |
| DKKTKPTPPPKPSHL | 3 | 3 | 4 | 0 | 4 | 115 | 1 | 2 | 0 | 0 | 410 | 1 | 0 | 0 | 1 | 1 | 0 | 1 | 0 | 0 | SPOT intensity (Bbc1, P47068): 0; SPOT intensity (Lsb3, P43603): 24; SPOT intensity (Rvs167, P39743): 0; SPOT intensity (Myo5, Q04439): 0; SPOT intensity (Bzz1-2, P38822): 0; SPOT intensity (Pin3, Q06449): 0; SPOT intensity (Bem1-1, P29366): 0 |
| TKPTPPPKPSHLKPK | 3 | 0 | 11 | 1 | 266 | 199 | 2 | 0 | 1 | 1 | 631 | 0 | 0 | 0 | 1 | 0 | 2 | 0 | 0 | 5 | SPOT intensity (Bbc1, P47068): 1; SPOT intensity (Lsb3, P43603): 75; SPOT intensity (Rvs167, P39743): 0; SPOT intensity (Myo5, Q04439): 0; SPOT intensity (Bzz1-2, P38822): 0; SPOT intensity (Pin3, Q06449): 0; SPOT intensity (Bem1-1, P29366): 0 |
| AKDLIVPRRPEWNEG | 5260 | 1450 | 1130 | 1390 | 567 | 1570 | 347 | 1640 | 2720 | 2730 | 766 | 2630 | 461 | 636 | 480 | 5580 | 1230 | 550 | 446 | 768 | SPOT intensity (Bbc1, P47068): 1050; SPOT intensity (Lsb3, P43603): 591; SPOT intensity (Rvs167, P39743): 1950; SPOT intensity (Myo5, Q04439): 624; SPOT intensity (Bzz1-2, P38822): 2660; SPOT intensity (Pin3, Q06449): 694; SPOT intensity (Bem1-1, P29366): 3920 |
| FPPKRKPLLRPQRSD | 4 | 6 | 51 | 9 | 16 | 154 | 27 | 1 | 3 | 25 | 232 | 0 | 30 | 69 | 19 | 19 | 6 | 1 | 2 | 81 | SPOT intensity (Bbc1, P47068): 266; SPOT intensity (Lsb3, P43603): 48; SPOT intensity (Rvs167, P39743): 25; SPOT intensity (Myo5, Q04439): 0; SPOT intensity (Bzz1-2, P38822): 28; SPOT intensity (Pin3, Q06449): 19; SPOT intensity (Bem1-1, P29366): 1 |

From paper PMC2756588
